Experiments:
[1] = molecular target: T1, L7Ae-Affibody (L7Ae-AFB) (UniProt O29494 O29494:1-119); test: EMSA; settings: chain copies: 3 per LS-RNA; loop of double-stranded RNA with three K-turn motifs
Method: (§1) Subsequently, according to electrophoretic mobility shift assay (EMSA), the interaction of L7Ae with the LS-RNA was analyzed. After completion of electrophoresis using polyacrylamide gel, the polyacrylamide gel was stained with SYBR Green I and II (Lonza), and formation of an RNA-protein complex was then observed. As a result, it was confirmed that a triangular structure was formed by the interaction of the LS-RNA with L7Ae, as expected, in all of the LS-RNAs (FIG. 2).
(§2) The function to recognize specific cancer cells was imparted to Tri-RNP. Specifically, a protein (L7Ae-AFB), in which the N-terminus of an affibody_{ZHER2:342} peptide (SEQ ID NOS: 25 and 26) was fused with the C-terminus of L7Ae via […] (SEQ ID NOS: 27 and 28), was prepared by transfecting a plasmid into Escherichia coli in accordance with Ohno, H., et al., as described above. This L7Ae-AFB was added to LS-RNA to construct RNP (Tri-AFB, FIG. 9A). When LS-26 was used as RNA (Tri-26-AFB), a triangular structure was found by HS-AFM, and it was also confirmed that a substance assumed as AFB was added to each vertex (FIG. 9B). Moreover, according to EMSA, it was confirmed that L7Ae-AFB binds to a K-turn motif, as with Tri-26 (FIG. 10).

[2] = molecular target: T2, L7Ae (UniProt O29494 O29494:1-119); test: EMSA; triangle also by HS-AFM; settings: tags: expressed from pET-28(+) (Novagen) in E. coli Rosetta; chain copies: 3 per LS-RNA; loop of double-stranded RNA with three K-turn motifs
Method: as §1

[3] = molecular target: T2, L7Ae; test: EMSA; 150 KCl (unit printed ml), 1.5 mM MgCl2, 20 mM HEPES-KOH pH 7.5; triangle also by HS-AFM; settings: tags: expressed from pET-28(+) (Novagen) in E. coli Rosetta; chain copies: 3 per LS-RNA; loop of double-stranded RNA with three K-turn motifs
Method: as §1

[4] = molecular target: T1, L7Ae-Affibody (L7Ae-AFB); test: EMSA; triangle also by HS-AFM; settings: chain copies: 3 per LS-RNA; loop of double-stranded RNA with three K-turn motifs
Method: as §1, §2

[5] = molecular target: T2, L7Ae; test: HS-AFM, triangular structure with L7Ae; settings: tags: expressed from pET-28(+) (Novagen) in E. coli Rosetta; chain copies: 3 per LS-RNA; loop with three K-turn motifs and a GFP siRNA duplex at each side
Method: Subsequently, the Tri-RNPs were observed by […]. […] The cantilever was set at a resonance frequency of 400-1000 kHz and at a spring constant of 0.1-0.2 N/m. A probe was deposited on the cantilever by electron beam. The mica surface was coated with 0.1% APTES, and thereafter, a 50 nM sample that had been dissolved in an RNP-binding solvent and an AFM observation solvent (20 mM Tris-HCl (pH7.6) and 10 mM MgCl2) was left at rest on the mica. The image was analyzed using software such as Image J and WSxM.
Specifically, five RNAs were hybridized with S-26, L-26-1 (SEQ ID NO: 29), L-26-2 (SEQ ID NO: 30), L-26-3 (SEQ ID NO: 31), and antisense-GFP (SEQ ID NO: 32) in the same manner as described above, such that L-26 had siRNA for GFP at the three sides thereof, thereby producing LS-26-siGFP. Subsequently, LS-26-siGFP was mixed with L7Ae to produce Tri-26-siGFP having a triangular structure, and the structure of the Tri-26-siGFP was then confirmed by HS-AFM. […] As given above, a triangular structure (Tri-26-siGFP) having a structure containing three double strands having siRNA function could be constructed.

T1 sequence (O29494 whole entry, one chain of several): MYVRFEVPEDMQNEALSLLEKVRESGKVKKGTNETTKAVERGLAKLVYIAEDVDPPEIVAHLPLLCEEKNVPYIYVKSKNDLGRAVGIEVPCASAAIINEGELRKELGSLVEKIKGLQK
T2 sequence (O29494 whole entry, one chain of several): as above

B1: LS-48 (dsRNA)
RNA 1: GGACGAGCUGUACACCAUGGUGACCGCCGCCGGGCGUGAUGAGCUCCAAGGACCCCAACGAGAAGCGCGAUCACAUGAUCUACUUCGGCUUCGGCGUGAUGAGCCCUGUGCUGCUGCCCGAUAACCACUACCUGCCAUCACCCACGGCCCUGGGCGUGAUGAGCAUUCCACCCAGAGCGC
RNA 2: GGUGUACAGCUCGUCCGCGCUCUGGGUGGAAUGCUCUGACCCAGGGCCGUGGGUGAUGGCAGGUAGUGGUUAUCGGGCAGCAGCACAGGGCUCUGACCGAAGCCGAAGUAGAUCAUGUGAUCGCGCUUCUCGUUGGGGUCCUUGGAGCUCUGACCCGGCGGCGGUCACCAU
Q: What does the source list for B1?
A: binding result [1]: binds; binding result [2]: binds

B2: LS-15 (dsRNA)
RNA 1: GGUGAAGGGCGUGAUGAGCGAGAAGUCCGGCUUCGGCGUGAUGAGCCCUGUGCCGGCCCUGGGCGUGAUGAGCAUUCCACC
RNA 2: GGACUUCUCGCUCUGACCCUUCACCGGUGGAAUGCUCUGACCCAGGGCCGGCACAGGGCUCUGACCGAAGCC
Q: Does B2 bind [1]?
A: Result: binds

Q: Does B2 bind [3]?
A: Result: binds

B3: LS-26 (dsRNA)
RNA 1: GGCGCAAAGGCCUGUAAUCGGCGUGAUGAGCCAUGCGAGGAGGAAAUGAAGUCCAAUGGCGUGAUGAGCCUCUACGGGAAGAGCAUGCCCAUCCGGGCGUGAUGAGCGUAGCAA
RNA 2: GGCCUUUGCGCCUUGCUACGCUCUGACCCGGAUGGGCAUGCUCUUCCCGUAGAGGCUCUGACCAUUGGACUUCAUUUCCUCCUCGCAUGGCUCUGACCGAUUACA
Q: Does B3 bind [4]?
A: Result: binds

Q: Does B3 bind [2]?
A: Result: binds

B4: LS-26-siGFP (dsRNA)
RNA 1: GGCAUCAAGGUGAACUUCAAGAUCCGCAAAGGCCUGUAAUCGGCGUGAUGAGCCAUGCGAGGA
RNA 2: GGCAUCAAGGUGAACUUCAAGAUCCGGAAAUGAAGUCCAAUGGCGUGAUGAGCCUCUACGGGA
RNA 3: GGCAUCAAGGUGAACUUCAAGAUCCAGAGCAUGCCCAUCCGGGCGUGAUGAGCGUAGCAAGGC
RNA 4: B3 RNA 2
RNA 5: GGAUCUUGAAGUUCACCUUGAUGCCAG
Q: Does B4 bind [5]?
A: Result: binds

Source: patent US20170327600, “RNA-PROTEIN COMPLEX, AND RNA AND PROTEIN DELIVERY SYSTEM USING THE SAME” (KYOTO UNIVERSITY, published 2017)
